Results published in patent US11453711B2, “Fusion proteins of GLP-1 and GDF15 and conjugates thereof” (BEIJING QL BIOPHARMACEUTICAL CO., LTD., priority 2019, dated 2022).

experiment: Body weight and food intake in C57BL/6 mice, fusion protein conjugates, 30 nmol/kg daily 10 days; assay type: in vivo
Description: 10 week old male C57BL/6 mice were injected everyday subcutaneously with 15 nmol/kg of the fusion protein conjugates (i.e., MLC002, MLC 004, MLC 005, MLC 006, MLC 007, MLC 008, and MLC 009) for 14 days. Food intake and body weight were measured daily and five animals were used for each treatment group. Body weight (BW) was monitored for each individual animal, but food intake for each group animals was measured together. Day 1 and Day 14 are first day and last day of molecule dosage. % BW loss=100*(BW on Day n-BW on Day 1)/(BW on Day 1). Cumulative food intake on Day n represents sum of food intake from Day 1 to Day n. Data are indicated as mean values and standard error (SEM) or pooled values. Statistical analysis was performed by One-way ANOVA. Body weight reduction on Day 11 is calculated by −1*(% BW loss−% BW loss of vehicle group); Cumulative food intake reduction is calculated by −100*(cumulative food intake-cumulative food intake of vehicle)/cumulative food intake of vehicle.
Data were calculated in the same way as described above. Day 1 and Day 10 are first day and last day of the administration.
MLC014 was used as a negative control. MLC014 has an amino acid sequence of SEQ ID NO: 261, which contains a linker fused to the N terminal of GDF15, with a CRM conjugated to the lysine residue in the linker. Tirzepatide was also used as a control.

| Molecule | Body weight reduction at 30 nmol/kg (% reduction compared to vehicle)(Day11) [%] | Cumulative food intake reduction at 30 nmol/kg (% reduction compared to vehicle)(Day11) [%] |
| --- | --- | --- |
| Tirzepatide [reference compound] | 10.5 | 23.0 |
| MLC014: negative control, SEQ ID NO: 261: linker fused to N terminal of GDF15, CRM conjugated to lysine in the linker; GDF15 derivative (conjugate, CRM conjugated to linker lysine, GDF15 derivative) SEPATSGQEKGQEPGQEPGQEPGQEPGQEPGAQPGAQPARQGDHCPLGPGRCCRLHTVRASLEDLGWADWVLSPREVQVTMCIGACPSQFRAANLHAQIKTSLHRLRPDTVPAPCCVPASYNPMVLIQRTDTGVSLQTYDDLLARDCHCI | 9.5 | 27.3 |
| MLC012: fusion polypeptide SEQ ID NO: 259 conjugated with Moiety A at 12K of Linker (conjugate, Moiety A conjugated at linker K12) HGEGTFTSDVSSYLEEQAAREFIAWLVRGGGGQEPGQEPGQEKGQEPGQEPGQEPGQEPGQEPGQEPGQEPARQGDHCPLGPGRCCRLHTVRASLEDLGWADWVLSPREVQVTMCIGACPSQFRAANLHAQIKTSLHRLRPDTVPAPCCVPASYNPMVLIQRTDTGVSLQTYDDLLARDCHCI | 30.6 | 37.2 |
| MLC018: fusion polypeptide SEQ ID NO: 265 conjugated with Moiety A at 52K of Linker (conjugate, Moiety A conjugated at linker K52) HGEGTFTSDVSSYLEEQAAREFIAWLVRGGGGQEPGAQPGQEPGAQPGQEPGAQPGQEPGAQPGQEPGAQPGQEPGAQPGQEKGAQPGQEPGAQPGQEPGAQPGQEPGAQPARQGDHCPLGPGRCCRLHTVRASLEDLGWADWVLSPREVQVTMCIGACPSQFRAANLHAQIKTSLHRLRPDTVPAPCCVPASYNPMVLIQRTDTGVSLQTYDDLLARDCHCI | 23.5 | 48.1 |
| MLC027: fusion polypeptide SEQ ID NO: 274 conjugated with Moiety A at 55K of Linker (conjugate, Moiety A conjugated at linker K55) HGEGTFTSDVSSYLEEQAAREFIAWLVRGGGGAQPGAQPGAQPGAQPGAQPGAQPGAQPGAQPGQEPGAQPGQEPGAQPGQEPGQKPGQEPGQEPGQEPGQEPGAQPGAQPARQGDHCPLGPGRCCRLHTVRASLEDLGWADWVLSPREVQVTMCIGACPSQFRAANLHAQIKTSLHRLRPDTVPAPCCVPASYNPMVLIQRTDTGVSLQTYDDLLARDCHCI | 19.1 | 40.7 |
| MLC064: fusion polypeptide SEQ ID NO: 359 conjugated with Moiety A at 51K of Linker (conjugate, Moiety A conjugated at linker K51) HGEGTFTSDVSSYLEEQAAREFIAWLVRGGGGQEPGAQPGQEPGAQPGQEPGAQPGQEPGAQPGQEPGAQPGQEPGAQPGAKPGAQPGAQPGAQPGAQPGAQPGAQPGAQPARQGDHCPLGPGRCCRLHTVRASLEDLGWADWVLSPREVQVTMCIGACPSQFRAANLHAQIKTSLHRLRPDTVPAPCCVPASYNPMVLIQRTDTGVSLQTYDDLLARDCHCI | 24.0 | 43.6 |
| MLC030: fusion polypeptide SEQ ID NO: 277 conjugated with Moiety A at 15K of Linker (conjugate, Moiety A conjugated at linker K15) HGEGTFTSDVSSYLEEQAAREFIAWLVRGGGGQEPGQEPGQEPGQKPGQEPGQEPGQEPGQEPGAQPGAQPGAQPGAQPGAQPGAQPGAQPGAQPGAQPGAQPGAQPGAQPARQGDHCPLGPGRCCRLHTVRASLEDLGWADWVLSPREVQVTMCIGACPSQFRAANLHAQIKTSLHRLRPDTVPAPCCVPASYNPMVLIQRTDTGVSLQTYDDLLARDCHCI | 22.0 | 29.1 |
| MLC043: fusion polypeptide SEQ ID NO: 326 conjugated with Moiety A at 26K of GLP-1 (conjugate, Moiety A conjugated at K26) HGEGTFTSDVSSYLEEQAAKEFIAWLVRGGGGQEPGAQPGQEPGAQPGQEPGAQPGQEPGAQPGQEPGAQPGQEPGAQPGAQPGAQPGAQPARQGDHCPLGPGRCCRLHTVRASLEDLGWADWVLSPREVQVTMCIGACPSQFRAANLHAQIKTSLHRLRPDTVPAPCCVPASYNPMVLIQRTDTGVSLQTYDDLLARDCHCI | 17.4 | 30.5 |
| MLC045: fusion polypeptide SEQ ID NO: 328 conjugated with Moiety A at 1K and 55K of Linker (conjugate, Moiety A conjugated at linker K1, K55) HGEGTFTSDVSSYLEEQAAREFIAWLVRGGGKQEPGAQPGQEPGAQPGQEPGAQPGQEPGAQPGQEPGAQPGQEPGAQPGAQPGAKPGAQPGAQPGAQPGAQPGAQPGAQPARQGDHCPLGPGRCCRLHTVRASLEDLGWADWVLSPREVQVTMCIGACPSQFRAANLHAQIKTSLHRLRPDTVPAPCCVPASYNPMVLIQRTDTGVSLQTYDDLLARDCHCI | 20.6 | 27.8 |
| MLC046: fusion polypeptide SEQ ID NO: 329 conjugated with Moiety A at 60K of linker (conjugate, Moiety A conjugated at linker K60) HGEGTFTSDVSSYLEEQAAREFIAWLVRGGGGQEPGAQPGQEPGAQPGQEPGAQPGQEPGAQPGQEPGAQPGQEPGAQPGAQPGAQPGAQKGAQPGAQPGAQPGAQPGAQPARQGDHCPLGPGRCCRLHTVRASLEDLGWADWVLSPREVQVTMCIGACPSQFRAANLHAQIKTSLHRLRPDTVPAPCCVPASYNPMVLIQRTDTGVSLQTYDDLLARDCHCI | 24.6 | 41.4 |
| MLC103: fusion polypeptide SEQ ID NO: 390 conjugated with Moiety A at 71K of Linker (conjugate, Moiety A conjugated at linker Lys71) HGEGTFTSDVSSYLEEQAAREFIAWLVRGGGGQEPGAQPGQEPGAQPGQEPGAQPGQEPGAQPGQEPGAQPGQEPGAQPGAQPGAQPGAQPGAQPGAQPGAKPGAQPGAQPARQGDHCPLGPGRCCRLHTVRASLEDLGWADWVLSPREVQVTMCIGACPSQFRAANLHAQIKTSLHRLRPDTVPAPCCVPASYNPMVLIQRTDTGVSLQTYDDLLARDCHCI | 23.3 | 36.2 |
| MLC104: fusion polypeptide SEQ ID NO: 391 conjugated with Moiety A at 76K of Linker (conjugate, Moiety A conjugated at linker Lys76) HGEGTFTSDVSSYLEEQAAREFIAWLVRGGGGQEPGAQPGQEPGAQPGQEPGAQPGQEPGAQPGQEPGAQPGQEPGAQPGAQPGAQPGAQPGAQPGAQPGAQPGAQKGAQPARQGDHCPLGPGRCCRLHTVRASLEDLGWADWVLSPREVQVTMCIGACPSQFRAANLHAQIKTSLHRLRPDTVPAPCCVPASYNPMVLIQRTDTGVSLQTYDDLLARDCHCI | 22.7 | 29.4 |
| MLC080: fusion polypeptide SEQ ID NO: 374 conjugated with Moiety B at 35C of Linker (conjugate, Moiety B conjugated at linker C35) HGEGTFTSDVSSYLEEQAAKEFIAWLVRGGGGQEPGAQPGQEPGAQPGQEPGAQPGQEPGAQPGQCPGAQPGQEPGAQPGQEPGAQPGAQPGAQPGAQPGAQPGAQPGAQPARQGDHCPLGPGRCCRLHTVRASLEDLGWADWVLSPREVQVTMCIGACPSQFRAANLHAQIKTSLHRLKPDTVPAPCCVPASYNPMVLIQKTDTGVSLQTYDDLLAKDCHCI | 17.2 | 33.2 |
